From publication PMC6697693, “head-bent resistant Hsc70 variants show reduced Hsp40 affinity and altered protein folding activity” (Scientific Reports, 2019) come the findings set out here.

In series [1] the target is T1, wild type Hsc70 (nematode Hsc70, HSP-1) (C. elegans, UniProt P09446 1-640).
T1 construct: Hsc70 (HSP-1) of C. elegans, encoded by hsp-1, the sole functional Hsc70-like protein of the nematode; About 70 kDa by ultracentrifugation; also called Hsc70 wild type; CeHsc70; source: expressed from pET28b-Hsc70, purified (Ni-NTA, ion-exchange, size exclusion chromatography)
As to the kind of experiment: AUC; sedimentation velocity with fluorescence detection, 300 nM *BAG-1 with 2 µM Hsc70 variant, 42,000 rpm, 20 °C, 40 mM HEPES/KOH pH 7.5, 150 mM KCl, 1 mM DTT, 5 mM MgCl2; without nucleotide, and with ADP (complex diminished). To be noted: both partners purified.

A further series concerns the target T2, Hsc70 A379V (C. elegans, UniProt P09446 1-640, A379V).
T2 construct: Hsc70 (HSP-1) of C. elegans, encoded by hsp-1, with the suppressor mutation A379V; Mutation was found in a mutagenesis screen as a suppressor of unc-23(e25); source: expressed from mutated pET28b-Hsc70 (QuickChange PCR), purified (Ni-NTA, ion-exchange, size exclusion chromatography)
The series is described as above. The conditions noted are these: both partners purified.

A further series has as its target T3, Hsc70 D384N (C. elegans, UniProt P09446 1-640, D384N).
T3 construct: Hsc70 (HSP-1) of C. elegans, encoded by hsp-1, with the suppressor mutation D384N; Mutation was identified as a suppressor of unc-23(ok1408); source: expressed from mutated pET28b-Hsc70 (QuickChange PCR), purified (Ni-NTA, ion-exchange, size exclusion chromatography)
The description is as above. To be noted: both partners purified.

The target in the next series is T4, Hsc70 D233N (C. elegans, UniProt P09446 1-640, D233N).
T4 construct: Hsc70 (HSP-1) of C. elegans, encoded by hsp-1, with the suppressor mutation D233N; Mutation was found in a mutagenesis screen as a suppressor of unc-23(e25); source: expressed from mutated pET28b-Hsc70 (QuickChange PCR), purified (Ni-NTA, ion-exchange, size exclusion chromatography)
The series is described as above. To be noted: both partners purified.

Series [2] concerns the molecule itself. In words: AUC; sedimentation velocity, UV/VIS optics, 0.5 mg/mL protein; dc/dt plots and UltraScan II analysis; oligomerization status of Hsc70 variants.

T2 sequence (P09446 whole entry A379V): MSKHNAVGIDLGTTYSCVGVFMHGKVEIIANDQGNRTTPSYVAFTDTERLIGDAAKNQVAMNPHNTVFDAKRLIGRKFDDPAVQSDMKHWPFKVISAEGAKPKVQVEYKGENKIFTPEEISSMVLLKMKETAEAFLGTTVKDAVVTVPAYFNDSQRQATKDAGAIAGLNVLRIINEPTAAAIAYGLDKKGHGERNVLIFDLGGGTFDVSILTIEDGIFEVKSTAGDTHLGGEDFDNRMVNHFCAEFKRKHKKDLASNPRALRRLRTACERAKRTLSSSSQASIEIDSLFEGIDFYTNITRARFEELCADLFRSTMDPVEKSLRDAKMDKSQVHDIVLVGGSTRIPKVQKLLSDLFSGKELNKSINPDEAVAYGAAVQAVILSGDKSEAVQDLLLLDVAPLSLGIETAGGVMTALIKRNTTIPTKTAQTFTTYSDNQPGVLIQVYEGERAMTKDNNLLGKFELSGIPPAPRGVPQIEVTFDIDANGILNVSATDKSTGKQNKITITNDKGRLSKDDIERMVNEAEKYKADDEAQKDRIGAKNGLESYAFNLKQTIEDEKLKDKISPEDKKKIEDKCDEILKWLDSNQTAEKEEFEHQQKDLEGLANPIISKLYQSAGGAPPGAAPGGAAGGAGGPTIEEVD
T1 sequence (P09446 whole entry): as the sequence (P09446 whole entry A379V) above, with V379A counted along it
T3 sequence (P09446 whole entry D384N): as the sequence (P09446 whole entry A379V) above, with V379A, D384N counted along it
T4 sequence (P09446 whole entry D233N): as the sequence (P09446 whole entry A379V) above, with D233N, V379A counted along it

B1: BAG-1 (nematode nucleotide exchange factor), fluorescently labelled (natural protein, C. elegans, UniProt O44739 1-210, looked up)
chain: MKVNVSCSSVQTTIDILEENQGEDESILTLGQLRDRIATDNDVDVETMKLLHRGKFLQGADDVSLSTLNFKENDKIIVMGGKNALVDDAGFKMLMQYEKHNLSNLQKAYDLNLRDVADLERGFLEKPKQVEMGKKLEKKVKYFNEEAERHLETLDGMNIITETTPENQAKRNREKRKTLVNGIQTLLNQNDALLRRLQEYQSVLNGDIPE
modifications: ATTO 488 C5-maleimide at its cysteine residue
notes: BAG-1, nucleotide exchange factor of Hsc70 in C. elegans; unlabelled BAG-1 was used in the ATPase assays
Regarding B1, the binding result (in series [1]; with Hsc70 A379V; with Hsc70 D384N; with Hsc70 D233N) was “binds” throughout.

B2: Hsc70 S321F (natural protein)
chain: not shown
notes: Hsc70 (HSP-1) of C. elegans, encoded by hsp-1, with the suppressor mutation S321F; forms heterogeneous oligomers; source: expressed from mutated pET28b-Hsc70 (QuickChange PCR), purified (Ni-NTA, ion-exchange, size exclusion chromatography)
Regarding B2, the binding result in series [2] is on record as “binds”.
